Assay results reported in article PMC5823459.

Columns and labels:
[1] = molecular target: mouse-human chimeric mAb 101F; test: ELISA
[2] = molecular target: D25; test: ELISA
[3] = molecular target: D25; settings: cells fixed with 4% (vol/vol) paraformaldehyde 16 h after transfection; read off a plot
[4] = molecular target: palivizumab; settings: cells fixed with 4% (vol/vol) paraformaldehyde 16 h after transfection; read off a plot

Row | Substance | EC50 [1] [µg/mL] | percent of parent [3] [% WT] | percent of parent [4] [% WT] | other results
1 | post-fusion RSV A2 F protein G430A | 0.035 | – | – | –
2 | post-fusion RSV A2 F protein I432A | 0.066 | – | – | –
3 | post-fusion RSV A2 F protein R429A | 0.026 | – | – | –
4 | pre-fusion RSV A2 F SC-TM protein G430A | 0.97 | – | – | –
5 | pre-fusion RSV A2 F SC-TM protein R429A | – | – | – | EC50 [2]: 0.023 µg/mL
6 | wild-type RSV F (RSV-A2) expressed on HEK-293T cells G430A | – | 310 | 400 | –
7 | wild-type RSV F (RSV-A2) expressed on HEK-293T cells I432A | – | 240 | 260 | –
8 | wild-type RSV F (RSV-A2) expressed on HEK-293T cells R429A | – | 390 | 310 | –
